From the supplement of paper PMC9170038

Tested on: MS2 coat protein
Experiment: apparent KD of MS2 coat protein; higher = weaker reporter binding
Settings: Eterna round: R107
Summary of the method: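 The designed RNA switches were transcribed on-chip from Illumina sequencing clusters. In 100 mM Tris-HCl pH 7.5, 80 mM KCl and 4 mM MgCl2, without or with constant ligand, they were titrated with SNAP-549-labelled MS2 coat protein from 0.7 or 1.5 nM to 3 µM in twofold steps. Apparent KD is the per-design median of normalised cluster binding-curve fits.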

[1] = input ligand: theophylline 20 uM
[2] = input ligand: theophylline 2 mM
[3] = input ligand: tryptophan 2.4 mM

Row | Sequence | apparent KD of MS2 coat protein (input ligand: arginine 13.2 mM) | apparent KD of MS2 coat protein (input ligand: none) | apparent KD of MS2 coat protein [1] | apparent KD of MS2 coat protein [2] | apparent KD of MS2 coat protein [3]
1 | GGGUGGUAGGCGGCCGCCACUGAUUUUUAUAUAUAUAUGACAUGAGGAUCACCCAUGUAGAUAUGCAGGACCGGGCCUGUUGUUU [aaaN] | 22.4 nM | 22.2 nM | 28.2 nM | 22 nM | 28.3 nM
2 | UUCACAUGGUAUGAAUAUACAUACAAGAAACGAGGACCGGUACGGCCGCCACUCGUGCCGGAAACAUGAGGAUCACCCAUGUGUU [AK1.2 Exclusion TrypA mod IceBolt] | 21.5 nM |  | 41.2 nM | 41.2 nM | 
3 | GUAUCUAUGUGAAAUAGAUAUGUAACUGAAGGAGCGUCAUUAAGGACAGGUAGGUCGCGGAGCACAUGAGGAUCACCCAUGUCGG [#09 Same State - Arginine A] | 24.7 nM | 42.1 nM | 31.1 nM | 35.5 nM | 34.3 nM
4 | UUAAUUAUAUAUUAUUUAAUAUUUACAGAAGGAGCGUGAUAAAACACAGGUAGGUCGCUGAAGGGAACAUGAGGAUCACCCAUGU [AstrosSSArgA#20] | 28.6 nM | 28.9 nM | 41.6 nM | 60.1 nM | 38.9 nM
5 | GUUGGAUUCUCGGCCGCCACUGAGAGAGUCAUGUGAACAUGAGGAUCACCCAUGUAAUAUAUAUACAGGACCGGGAGGGUUGUAA [4.K] | 21.9 nM | 20.2 nM | 35.8 nM | 22.6 nM | 14.8 nM
6 | AAUAAUAAGGCGGCCGCCACUACACAUGAGGAUCACCCAUGUCUCGCGGGCUUGCGUUGGGAAUGUAGGACCGGGCCAAUAAUAA [Exclusion - Tryptophan B (Freestyle 10)] | 14.3 nM |  | 25.8 nM | 27.9 nM | 
7 | UGUAUGGACUGAAGGAGCGCCUCAAACAUGAGGAUCACCCAUGUGGACAAAUAAGUCCUUGGGCAGGUAGGUCGCAGUCCAUACU [ArgBX 7 #StaticStem #MS2Late] | 73.5 nM | 82.8 nM | 91.2 nM | 90.6 nM | 66.1 nM
8 | AAGGUGAUCCGUGAUACCAGCUCAACAUGAGGAUCACCCAUGUAAGCCUGGAAACAGGCGAGCCCUUGGCAGCACGGUAAUAAUA [(M)'-(Theo1)-(Ms2)-(Theo2)-(M'')] | 12.6 nM |  | 14.5 nM |  | 12.6 nM
9 | AAACAUGAGGAUCACCCAUGUCCUCCUGUCCGAGGACCGGUACGGCCGCCACUCGGUUCUCGGGAGGAUGGUCAAAGACUAUCCA [Omei Trp A SS B v9] | 120 nM |  | 327 nM | 332 nM | 
10 | GUAUUACGGACGGCCGCCACUGUGGGACAUGAGGAUCACCCAUGUGGCGCUACUUACAAGUGCGACAGGACCGGGUCAUGGUUUG [theeternabot_sameState_MS2_Trp_B_1] | 152 nM |  | 732 nM | 783 nM | 
11 | UAUAAACAGCCUGGUUACUCGUCGCGCUUGCGAGGACCGGUACGGCCGCCACUCGACCCAUCACAUGAGGAUCACCCAUGUCCCA [theeternabot_exclusion_MS2_Trp_A_25] | 29.4 nM |  | 45 nM | 38.6 nM | 
12 | AACUGGACCCGUGAUACCAGAGACAUGAGGAUCACCCAUGUACAUGAGGAUCACCCAUGUCUCCCUUGGCAGCACCGCAGGGAGC [Exclusion Theophylline B GF 13] | 45.7 nM |  | 127 nM |  | 128 nM
13 | ACGGAUCGGAAACGAUCCGCGGCAAGGGUACGAGGACCGGUACGGCCGCCACUCGGCUAACAUGAGGAUCACCCAUGUCCGAAGA [ETA NP+V+V2 #8] | 41.9 nM | 60.7 nM | 59.7 nM | 72.2 nM | 72.2 nM
14 | CCCUGGGUGGGAAGGAGCGCAUAGUGAACAUGAGGAUCACCCAUGUGUAGACGUGAGUCACUGCAGGUAGGUCGCCCACCCAGGG [SS-ArgB23] | 19.5 nM | 27.5 nM | 47.3 nM | 46.5 nM | 29.5 nM
15 | AGCAACAAGUCGGCCGCCACUCUUUUUACAUGAGGAUCACCCAUGUUUAUAUCAUGGUCUUAAUAGAGGACCGGGACAGUUGCAU [JR_ExcTryptoB_Sub006] | 28.6 nM |  | 53.7 nM | 46.9 nM | 
16 | UCGGACAUGAGGAUCACCCAUGUAAAUCCUCGAGGACCGGUACGGCCGCCACUCGAACGAGUGGCACGCGAGUGCGCACUCGCGU [aEa] | 24.1 nM |  | 47.8 nM | 34 nM | 
17 | UGUAUGGACUGAAGGAGCGCCUCAAAAUAUCAUGAGGAUCACCCAUGGAAGGCGAAAGCCGGGCAGGUAGGUCGCAGUCCAUACU [ArgBX 3] | 20.2 nM | 15.6 nM | 19.1 nM | 15.6 nM | 13.4 nM
18 | GGGUACAUCGCGGCCGCCACUGAUGUAAAUACAUGAGGAUCACCCAUGUCGAUGGAGACAUCGGCCAGGACCGGGUGAUGUACCG | 13.1 nM | 14 nM | 24.1 nM | 16.5 nM | 11.6 nM
19 | AUAAGGUAUCUGCUUCAUGGGUGAGCAGAUACCAGCUAGGAAACUAGCCCUUGGCAGCUGCAACAUGAGGAUCACCCAUGUAAUA [(T)'-(M)'-(T1)-(T2)-(M1)-(M2)_Design2] | 60.7 nM | 1060 nM | 149 nM | 964 nM | 142 nM
20 | ACAUGAGGAUCACCCAUGUUCCUCGCCGAUACCAGUGAAGAAUUACGCCCUUGGCAGCGGAAAGAGUGUUUUGGAGAUGAGGUAC [6.aA] | 80.5 nM |  | 112 nM |  | 100 nM
21 | CCACACAUGAGGAUCACCCAUGUAAUUGAUACCAGAUUUAAAUGAGUCCCUUGGCAGCAGUGAGCUAGAGUUGUCGUAUAUAUGG [Theo A SS t2] | 14.2 nM |  | 23.8 nM |  | 16.1 nM
22 | UUAUGAUGUUCCGAUACCAGCCAUGUAGUUCUAACUUAACAUGAGGAUCACCCAUGUACCGGCCCUUGGCAGCGGAUGUGGAUUA [#22Same State - Theophylline B] | 27 nM | 23.4 nM | 29.3 nM | 14.8 nM | 23.7 nM
23 | AACGUCUUGUCGGCCGCCACUGUAUGGUGCGUGACAUGAAACAUGAGGAUCACCCAUGUAGCAUGCAGGACCGGGACAGUGCCAA [Beriaran] | 7.49 nM |  | 13.9 nM | 11.6 nM | 
24 | GCACAUGAGGAUCACCCAUGUAUUACUGAAGGAGCGAGACAGAACUCAGGUAGGUCGCAGACUGCACAAUUGCGGACGACAUGGG [Exclusion Arginine A GF22] | 14.6 nM | 31.5 nM | 41 nM | 31.2 nM | 34.3 nM
25 | CCGGCGCGAUUAUGGGUUUGCUUUUACGAUACCAGCCGCGUUCCGGGCCCUUGGCAGCGUGUAACAUGAGGAUCACCCAUGUUCA [theeternabot_exclusion_MS2_Theo_A_37] | 9.81 nM |  | 20.7 nM |  | 10.1 nM
26 | AACGUAUACAGAAGGAGCGUGAUUUAUAUUUCUUUAACAUAUACAUGAGGAUCACCCAUGUCACAGGUAGGUCGCUGUAUUCGUA [JR_ExcArginiB_Sub023] | 33.6 nM | 31.1 nM | 40.1 nM | 32.6 nM | 30.8 nM
27 | UCGCUCUGGGUGGAAUCCGGAGAUGUGGAAGGAGCGCUCGAAAGGGCAGGUAGGUCGCCAACGGACAUGAGGAUCACCCAUGUAC [#23 Same State - Arginine A] | 29.4 nM | 25.4 nM | 37.5 nM | 39.8 nM | 49.2 nM
